Results as given in the Human Domainome abundance scans (Beltran et al. 2025).

B1: Gamma-crystallin D, residues 90 to 170; numbered along this chain, P07320 (parent)
chain: IRLYEREDYRGQMIEFTEDCSCLQDRFRFNEIHSLNVLEGSWVLYELSNYRGRQYLLMPGDYRRYQDWGATNARVGSLRRV
B2: Double-stranded RNA-specific adenosine deaminase, residues 296 to 358; numbered along this chain, P55265 (parent)
chain: MAEIKEKICDYLFNVSDSSALNLAKNIGLTKARDINAVLIDMERQGDVYRQGTTPPIWHLTDK

Variants of: B1
Test: abundance fitness (aPCA) (normalised: wild type 0, dead -1); higher = more abundant; growth selection in yeast, the domain comes from the species named
Conditions: Homo sapiens

Abundance fitness: each site, then its substitutions
N72: Y 0.173; A -0.08; P 0.03; Q 0.03
G69: D -0.105; M 0.24; N -0.011; C 0.084; R 0.141; V 0.105; E 0.193; L 0.101; W 0.045; A 0.038; T 0.016; Q 0.082; I -0.057; S -0.019; Y 0.037; P -0.164; F -0.008
V75: P -0.011; E -1.04; D -0.988; H -0.742; T -0.206; C -0.065; M -0.024; I -0.201; N -0.205; G -0.024; F -0.037; A -0.017; Q -0.145; Y -0.001; K -0.683; R -0.863; W -0.131
R79: T -0.117; G -0.032; C -0.355; I -0.175; W -0.36; N -0.316; S 0.068; Y -0.153; M 0.086; F -0.214; E 0.113; A 0.096; P -0.93; K -0.048; Q 0.049; D -0.552
V81: I -0.054; L 0.081; A -0.093
D67: I -0.155; S -0.005; A -0.101; V -0.043; P -0.19; C -0.148; L -0.084; R -0.208; M 0.047; Y -0.125; Q -0.08; E 0.049; W -0.064; H -0.034; F -0.062
A70: L 0.045; E 0.165; H 0.045; M 0.109; G -0.047; V 0.044; P 0.047; N 0.136; Q -0.032; C 0.074; R 0.095; S -0.025; F 0.048; D 0.18; I 0.024; W 0.032; Y -0.033

Variants of: B2
Test: as above
Conditions: Homo sapiens

Abundance fitness: each site, then its substitutions
K5: Q -0.28; T -0.601; P -0.486; E -0.666; F -0.449; C -0.924; R -0.118; H -0.68; I -0.512; G -0.616; M -0.574; N -0.555; A -0.428
E3: F -0.561; I -0.457; M -0.621; G -0.18; V -0.471; N -0.196; K -0.21; T -0.159; Q -0.368; S -0.213; H -0.285; P -0.383; W -0.147; L -0.552; Y -0.298; A -0.369; R -0.334
I4: Y -0.398; N -0.327; E -0.287; F -0.649; G -0.435; S -0.311; P -0.551; Q -0.327; V -0.293; K -0.2; R -0.387; C -0.995; L 0.146; H -0.227; A -0.37; D -0.121; T -0.24; M -0.217; W -0.666
M1: D -0.359; R 0.151; Y -0.327; F 0.108; W 0.017; L -0.29; E 0.235; G -0.263; S -0.034; Q 0.435; A -0.418; K 0.181; C -0.545
A2: E 0.3; K 0.168; S -0.024; M 0.045; L -0.096; H -0.151; F -0.471; Q 0.023; D 0.207; N 0.051; R 0.004; W -0.18; C -0.393; P -0.335; T -0.152; V -0.247
